Assay results as given in patent US20230272114A1 (published 2023).

Key:
[1] = target: S267E; assay: Biacore SPR
[2] = target: T1, Fc region of IgE (UniProt P01854 105-428); assay: Biacore
T1 chain: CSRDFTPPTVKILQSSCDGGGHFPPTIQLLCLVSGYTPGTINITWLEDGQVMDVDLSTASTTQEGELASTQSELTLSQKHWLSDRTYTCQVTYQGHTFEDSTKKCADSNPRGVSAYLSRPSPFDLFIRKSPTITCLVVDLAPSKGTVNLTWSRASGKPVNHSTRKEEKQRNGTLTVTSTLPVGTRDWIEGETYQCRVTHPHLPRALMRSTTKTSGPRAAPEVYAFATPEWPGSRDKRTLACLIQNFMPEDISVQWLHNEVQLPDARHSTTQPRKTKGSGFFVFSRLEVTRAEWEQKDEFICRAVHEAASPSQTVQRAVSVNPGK

[3] = target: T2, recombinant human FcγRIIb protein (R&D Systems) (human, UniProt P31994 46-217); assay: Biacore SPR
T2 chain: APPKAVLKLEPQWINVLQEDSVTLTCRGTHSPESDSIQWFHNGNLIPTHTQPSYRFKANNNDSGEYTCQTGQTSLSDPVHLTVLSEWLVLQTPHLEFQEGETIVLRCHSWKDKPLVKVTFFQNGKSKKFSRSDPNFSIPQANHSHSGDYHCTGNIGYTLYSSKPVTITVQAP

Binder	Kd [1] [nM]	Kd [2] [nM]	Kd [3] [nM]
FcγRIIb (receptor) APPKAVLKLEPQWINVLQEDSVTLTCRGTHSPESDSIQWFHNGNLIPTHTQPSYRFKANNNDSGEYTCQTGQTSLSDPVHLTVLSEWLVLQTPHLEFQEGETIVLRCHSWKDKPLVKVTFFQNGKSKKFSRSDPNFSIPQANHSHSGDYHCTGNIGYTLYSSKPVTITVQAP	60		
FcγRI (receptor) QVDTTKAVITLQPPWVSVFQEETVTLHCEVLHLPGSSSTQWFLNGTATQTSTPSYRITSASVNDSGEYRCQRGLSGRSDPIQLEIHRGWLLLQVSSRVFTEGEPLALRCHAWKDKLVYNVLYYRNGKAFKFFHWNSNLTILKTNISHNGTYHCSGMGKHRYTSAGISVTVKELFPAPVLNASVTSPLLEGNLVTLSCETKLLLQRPGLQLYFSFYMGSKTLRGRNTSSEYQILTARREDSGLYWCEAATEDGNVLKRSPELELQVLGLQLPTP	0.26		
MaE11_H1L1_IgG1_S267E/L328F (antibody) chain 1: not shown chain 2: DIQLTQSPSSLSASVGDRVTITCRASQSVDYDGDSYMNWYQQKPGQPPKLLIYAASYLGSEIPARFSGSGSGTDFTLTISSLQPEDFATYYCQQSHEDPYTFGAGTKLEIKRTVAAPSVFIFPPSDEQLKSGTASVVCLLNNFYPREAKVQWKVDNALQSGNSQESVTEQDSKDSTYSLSSTLTLSKADYEKHKVYACEVTHQGLSSPVTKSFNRGEC		0.063	5.6
MaE11_H1L1_IgG1_G236R/L328R (antibody) chain 1: not shown chain 2: DIQLTQSPSSLSASVGDRVTITCRASQSVDYDGDSYMNWYQQKPGQPPKLLIYAASYLGSEIPARFSGSGSGTDFTLTISSLQPEDFATYYCQQSHEDPYTFGAGTKLEIKRTVAAPSVFIFPPSDEQLKSGTASVVCLLNNFYPREAKVQWKVDNALQSGNSQESVTEQDSKDSTYSLSSTLTLSKADYEKHKVYACEVTHQGLSSPVTKSFNRGEC		0.064	
MaE11_H1L1_IgG1_WT (antibody) chain 1: not shown chain 2: DIQLTQSPSSLSASVGDRVTITCRASQSVDYDGDSYMNWYQQKPGQPPKLLIYAASYLGSEIPARFSGSGSGTDFTLTISSLQPEDFATYYCQQSHEDPYTFGAGTKLEIKRTVAAPSVFIFPPSDEQLKSGTASVVCLLNNFYPREAKVQWKVDNALQSGNSQESVTEQDSKDSTYSLSSTLTLSKADYEKHKVYACEVTHQGLSSPVTKSFNRGEC		0.061	2000
H131 FcγRIIa (receptor) QAAAPPKAVLKLEPPWINVLQEDSVTLTCQGARSPESDSIQWFHNGNLIPTHTQPSYRFKANNNDSGEYTCQTGQTSLSDPVHLTVLSEWLVLQTPHLEFQEGETIMLRCHSWKDKPLVKVTFFQNGKSQKFSHLDPTFSIPQANHSHSGDYHCTGNIGYTLFSSKPVTITVQVPSMGSSSPMGHHHHHH	960		
